# Source: the nanobody polyreactivity screen of Harvey et al. (2022)
# Assay: yeast display, Sf9 membrane polyspecificity reagent, FACS + sequencing; frameworks hold sequencing errors
# In short: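 Galactose-induced (36–48 hours) yeast carrying a synthetic nanobody display library were exposed to 10% biotinylated, detergent-solubilized Sf9 membrane reagent at 4 °C for 1 hour. FACS followed streptavidin microbead enrichment, using low and high (top ~1%) gates for expression (anti-HA) and reagent binding (streptavidin). Colony PCR, MiSeq 2 × 250 sequencing and CDR-length filtering followed. Labels for polyreactivity reflect the gate of origin.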
row,Sequence,polyreactivity (PSR sort gate)
1,QVQLVESGGGLVQAGGSLRLSCAASGSIFSSYAMGWYRQAPGKEREFVAAINNNDGGTDYADSVKGRFTISRDNAKNTVYLQMNSLKPEDTAVYYCAADYTRYVQTTYDYWGQGTQVTVSS,low polyreactivity
2,QVQLVESGGGLVQAGGSLRLSCAASGRTFLYYAMGWYRQAPGKERELVAAIRRGSSTYYADSVKGRFTISRDNAKNTVYLQMNSLKPEDTAVYYCNKVYYAFRVSLYRYGYWGQGTQVTVSS,high polyreactivity
3,QVQLVESGGGLVQAGGSLRLSCAASGSIFPYNVMGWYRQAPGKERELVAAITRRGGSTYYADSVKGRFTISRDNAKNTVYLQMNSLKPEDTAVYYCAAVPYPRGKGYDYWGQGTQVTVSS,high polyreactivity
4,QVQLVESGGGLVQAGGSLRLTCAASGRIFYLNAMGWYRQAPGKERELVAGLTNSTTGTYYADSVKGRFTISRDNAKNTVDLQMNSLKPEDTAVYYCNSDVAYEEPVETYDYWGQGTQVTVSS,low polyreactivity
5,QVQLGDSGGGLVHAGGSLSLSCAASGSTFAYYSMGWYRQAPGKERELVAGFTWTGGSTYYADSVKGRFTISRDNAKNTVYFQKNSLKPEDTAVYFCAVTYPYGYEYDHWGQGSQVTVSS,low polyreactivity
6,QVQLQESGGGLVQAGGSLRMSCASSGTIFRISDMGSYRQAPGKDSEFVAAITYGANTYYADSGKGRFTISRDNAKNTVYLQMNSLKPEDTAVYYCAVPPVKETILDYWGQGTQVTVSS,low polyreactivity
7,QVQLVESGGGLVQAGGRLRLSCAASGSIFQSYALAWYRQAPGKERELVAVITGGGGSTYYADSVKARFTISRDNAKNTVYLQMNSLKPEDTAVYYCNADFPSFGVIYSTRKDDSWGQGTQVTVSS,low polyreactivity
8,QVQLVESGGGLVPAGGSLRLSCAASGITIGRNTMGWYRQAPGKERELVAAIDSGGNTYADSVKGRFTISRDNAKNTVYLQMNSLKPEDTAVYYCAVDGGEFSSYGYWGQGTQVTVSP,low polyreactivity
9,QVQLVESGGGLVQAGGSLRLSCAASGGTFPWYSMGWYRPATGKEREMVAGITWGGVSTYADSVKGRFTISRDNAKNTVYLQMNSLKQEDTAVYYCASRTSFTRGPWYKFYYWGQGTQVTVSS,high polyreactivity
10,QVQLVESGGGLVQPGGSLRLSCAASGRIQRYYAMGWYRQAPGKERELVAVITSSDGSTYYADSVKGRFTISRDNAKNTVYLQMNRLKPEDTAVYYCAAAPLWRLASWWDPYRRYDYWGQGTLVTVSS,low polyreactivity
11,QVQLVESGGGLVQAGGSLRLSCAASGRIFKTYAMGWYRQAPGKEREVVAAITAAGGRTYYADSVKGRFTISRDNAKNTVYLQMNSLKPEDTAVYYCAADSGNDYDYWGQGTQVTVSS,low polyreactivity
12,QVQLVESGGGLVQAGGSLRLSCASSGSTFAIYAMGWYRQAPGKESELVAAITRSGGNAYYADSVKGRFTISRDNAKNTVYLQMNSLKPEDTAVYYCNAETYYWSAYAQYDYWGQGTQVTVSS,high polyreactivity
13,QVQLVESGGGLVQAGGSLRLSCAASGSSFRVYAMGWYRQAPGKERELVAAISGSGGSTYYADSVKGRFTISRDNAKNTVYLQMNSLKPVDTAVYYCAARSWYTEYYWGQCTQVTVSS,high polyreactivity
14,QVQLVESGGGLVQAGGSLRLSCAASGSTFYAYTMGWYRQAPGKARELFGTISSSGGRTNYADSVKGRFTISRDNAKNTVYLQMNSLKPEDTAVYYCAARSRVRNLVNGYTGLWYDYWGQGTQVTVSS,high polyreactivity
15,QVQLVESGGGLVQAGGSLRLSCAASGRTFGENTMGWYRQAPGKERELVASITWSGDSTFYADSVKGRFTISRDNAKNTVYLQMNSLKPEDTAVYYCARDDYYGSYGYDYWGQGTQVTVSS,low polyreactivity
16,QVQLVESGGGLVQAGGSLRLSCAPSGRIFKYNAMGWYRQAPGKERELVAAITSSGASTYYADSVKGRFTISRDIAKHTVYLQMNSLKPVVTAVYYCAARARRKYDYWGQGTQVTLSS,high polyreactivity
17,QVQLVESGGGLVQAGGSLRLSCAASGRIFGNYAMGWYRQAPGKERELVAAISNGSGRTSYADSVKGRFTISRDNAKNTVYLQMNSLKPEDTAVYYCAVLRPKSRKHTVGFCYWGQGTQVTVSS,high polyreactivity
18,QVQLVESGGGLVQAGGSLRLTCAASGRIFWGNAMGWYRQAPGKERDLVAAITSCDGTNYADSVKGRFTISRDNAKNTVYLQMNSLKPEDTAVYYCAARKYYYLQYTPRYDYWGQGTQVTVSS,low polyreactivity
19,QVQLVESGVGLVQAGGSLRLSCAASGNIFTTYAMGWYRQAPGKERELVAAISRTGGRTSYADSVKGRFTISRDNAKNTVYLQMNSLKPEDTAVYYCAAVPTVRPSAPRARILSDYWGQGTQVTVSS,high polyreactivity
20,QVQIVESGGGLVDAGGSLRLSCAASGRTFPPYAMGWYRQAPGKERELVAAISGSGASTYYADSVKGRFTISRDNAKNTVKLQWISQKPEDTAVYSWARYRGYWGRYYGVHYGYWGQGTQVTVSS,high polyreactivity
21,QVQLVESGGGLVQAGGSLRLSCAASGSIFDSYAMGWYRQAPGKERELVAAISWSGGSTYYADSVKGRFTISRDTAKNTVYLQMNSLKPDDTAVYYCNTDWADYYYYTDYDYWGQGTQLTVSS,high polyreactivity
22,QVQLEESGGGLVQAGGSLRLSCAASGSIFSIYAMGWYRQAPGKERELVASITRSSGRTYYADSVKGRFTISRDNAKNTVYLQMNSLKPEDTAVYYCAKDYIPLALDADDYWGQGTQVTVSS,low polyreactivity

row,Sequence,polyreactivity (PSR sort gate)
1,QVQLVESGGGLVQAGGSLRLSCAASGRIFSYYAMGWYRKAPGKERELVAAITSAGGTNYAVSVKGRFTISRDNAKITVYLQMNSLKPEDTAVYYCAADSSVLQNYYRYRYPYVTYNYWGQGTQVTVSS,low polyreactivity
2,QVQLVESGGGLVQAGGSLRLSCAASGFIFWYYAMGWYRQAPGKERELVATITTGGGTNYADSVKGRFTISRDNAKNTVYLQMNSLKPEDTAVYYCNADFRWYAEDDYWGQGTQVTVSS,low polyreactivity
3,QVQLVESWGGLVQAGGSLRLSCAASGRIFALYAMGWYRKAPGKERELVASINSRVGSTNYADSVKGRFTISRDNAKNTVYLQMNSLKPEDTAVYYCNARFVYAYQRYYWGQGTQVTVSS,high polyreactivity
4,QVQLVESGGGLVQAGGSLRLSCAASGSIFAFYAMGWYRQAPGKERELVAVISVSDGSTYYADSVKGRFTISRDNAKNTVYLQMKSLKAEDTAVYYCAATPRGSYGYYYWGQGTQVTVSS,low polyreactivity
5,QVQLVESGGGLVQAGGSLRLSCAASGSIFDDYAMGWYRQAPGKERELVAAISWSGGSTYYADSVKGRFTISRDNAKNTVYLQINSLKPEDTAVYYCAKESGWVGAIHYDYWGQGTQVTVSS,low polyreactivity
6,QVQLVESGGGLVQAGGSLRLSCAASGSIFYTYAMGWYRQAPGKERELVAAISWSDTTTYYAVSVKGRFTISRDSAKNTVYLQMNSLKPEDTAVYYFAADAYTNSYWYDYWGQGTQVTLSS,high polyreactivity
7,QVQLVETGGGLVQAGGSLRLSCAASGFTFTGNTMGWSRQAPGKERELVAAISQSGSRTYYADSVKGRFTISRDNAKNTVYLQMNSLKPEDTAVYYCNADYSSYWTSYDYWGQGTQVTVSS,high polyreactivity
8,QVQLVESGGGLVQAGGSLRLSCSASGSIIGHNAMGWYRQAPGKEREIVAAITWRGSNTYYADSVKGRFTISRDNAKNTVYLQMNSLKPEDTAVYYCAAEFYYRTQWYYYWGQGTQVTVSS,high polyreactivity
9,QVQLVESGGGLVQAGGSLRLICAASGRTFAIYAMGWYRQAPGKEREIVAAISWSGGDTYYADSVKGRFTISRDNEKNTVYLQMNSLKPEDTAVYYCAADRYDYSYFGYGAQDYDYWGQGTQLTVSS,low polyreactivity
10,QVQLVESGGGLVQAGGSLRLSCAASGRTFLYYAMGWYRQAPGKERELVAAISSGADSTYYADSVKGRFTISRDNAKNTVYLQMNSLKPEDTAVYYCAAGGSHDGVWDDYWGQGTQVTVSS,high polyreactivity
11,QVQLVESGGGLVQAGGSLRLICAASGSIFSLYAMGWYRQAPGKQREFVASISRSGGITYYADSVKGRFTISRDNEKNTVYLQMISLKPEDTAVYYCAAVGWVSYRRYDYWGQGTQVTVSS,high polyreactivity
12,HVQLVESGGGLVQAGGSLRLSCAASGGTFGRYARGWYRQAPGKERELVAAISSGGSTNYADSVKGRFTISRDNAKYTVYLLMNSLKPEDTAVYYCAADGPSGVRQYDYWGQGTQVTVSS,low polyreactivity
13,QVQLVESGGGLVQAGGSLRLSCAASGSTFPDNAMGWYRQAPGKERELVATITSGASTYYADSVKGRFTISRDNAKNTVYLQMNSLKPEDTAVYYCAVDVYFYYRHYGYWGQGTQVTVSS,low polyreactivity
14,QVQLVESGGGLVPAGGSLRLSCAASGSTFCPYAMGWYRQAPGKERELVADITSSGGSTYYADSVKGRFTISRDNAKNTVYLQMNSLKPEDTAVYYCAADWSNLGAYDYWGQRTQVTVSS,low polyreactivity
15,QVQLVESGGCLVQAGGSLRLSCAASGSTFENYAMGWYRPAPGKERELVATISIDGRTNYADSVKGRFTISRDNAKNTVFLQMNSLKPEDTGVYYCAARPYWRHRYDYWGQGTQVTVSS,low polyreactivity
16,QVQLVESGGGLVQAGGSLRLSCAPSGRIFRYYAMGWYRPAPGKERELVAAISSRGASTYYADSVKGRYTISRDNAKNTVYLQMNRVKPEDTAVYYCGVRTYVYHWSFSSLPYVYWGQGTQVTVSS,high polyreactivity
17,QVQLEESGGRLVQAGCSLRLSCAASGYIFRKYAMGWYRQAPGKEWELVADISSSGGSTYYADSVKGRFTISRDNAKNTVYLQMNSLKPEDTAGYYCAKDRKSSRRINRMDYWGQGTQVTVSS,high polyreactivity
18,QVQLVESGGGLVQAGGSLRLSCAASGLTFDYYAMGWYRQAPGKERELVAVISRVGSTYYADSVKGRFTISRDNAKNTVYLQINSLKPEDTAVYYCAADLWHSYQDMYYWGQGTQVTVSS,low polyreactivity
19,QVQLGDSGGGLVQAGGSLRLSCAASGRIFGVYAMGWYRQAPGKERELVAAISRNGGSTYYADSVKGRFTISRDNAKNTVYLQMNSLKPEDTAVYYCATGGGVEAAGAYWGQGTQVTVSS,low polyreactivity
20,QVQLVESRWRFVQAGGSLRLSCAASGSIFADYAMGWYRQAPGKERELVAAITFSGGSTYYADSVKGRFTISRDNAKNTVYLQMNSLKPEDTAVYYCASRWRYRYYSWGQGTQVTVSS,high polyreactivity
21,QVQLVESGGGLVQAGGSLRLSCAASGLTFSRNAMGGYRQAPGKERELVAGISVSGSITFYADSVKGRFTISRDNAKNTVYLQMNSLKPEDTAVYYCAARYRYRYTPSVTGYDYWGQGTQVTVSS,high polyreactivity
